Results on two molecules are retold here after US20220275088A1.

Assay [1] concerns the target human PD-1 on cells (transfected Expi293 cells, PHA-cultured T cells, cells of the Promega PD1-PDL1 bioassay, T cells of the MLR) (human) (UniProt Q15116). Kind of assay: cell-based or functional assay.
In assay [2] the target is soluble PD-1 (biotinylated PD-1; expi293 expressed soluble PD1-avi) (human) (UniProt Q15116). Description: method not named at the list; Octet (BLI) on biotinylated PD-1 by context.
soluble PD-1 (biotinylated PD-1; expi293 expressed soluble PD1-avi) (human), sequence (Q15116 25-170): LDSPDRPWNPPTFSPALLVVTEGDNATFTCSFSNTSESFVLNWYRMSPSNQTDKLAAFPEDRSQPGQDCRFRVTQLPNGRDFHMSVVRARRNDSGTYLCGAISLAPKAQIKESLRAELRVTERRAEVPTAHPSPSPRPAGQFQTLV
Assay [3] shares this target. Description: Octet (BLI).

human PD-1 on cells (transfected Expi293 cells, PHA-cultured T cells, cells of the Promega PD1-PDL1 bioassay, T cells of the MLR) (human), sequence (Q15116 25-288): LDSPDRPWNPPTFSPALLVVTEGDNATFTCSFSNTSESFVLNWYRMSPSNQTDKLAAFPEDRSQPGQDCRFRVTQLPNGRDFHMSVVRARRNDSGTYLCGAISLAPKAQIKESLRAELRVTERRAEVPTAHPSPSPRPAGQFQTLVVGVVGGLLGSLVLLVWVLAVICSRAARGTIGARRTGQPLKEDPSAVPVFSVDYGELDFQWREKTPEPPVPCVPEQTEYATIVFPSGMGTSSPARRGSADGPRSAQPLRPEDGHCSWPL

B1: P4-B3 minibody (scFv-Fc) (Fc fusion, part only; not given: Hinge, Fc, domain order, not shown: another chain or arm of the molecule; a dimerising Fc or GST; small tags and cut ends)
VH: QVQLVQSGGGLVQPGRSLRLSCAASGFTFDDYAMHWVRQAPGKGLEWVSGISWNSGSIGYADSVKGRFTVSRDNAKNSLYLQMNSLRAEDTAVYYCASDYGDKYYYYGMDVWGKGTTVTVSS
VL: QPGLTQPPSASGTPGQRVTISCSGSSSNIGSNTVNWYQQFPGKAPKLLIFNDNQRPSGVPDRFSASKSGTSASLAISGLQSEDEADYYCAAWDGGLNGRGVFGGGTKLTVL
Take B1: in assay [1], the EC50 against Nivo, Promega PD1-PDL1 bioassay (fold of the EC50 of Nivo) turned out to be 1.75. Besides, in assay [2], the Kd turned out to be 1 nM.

B2: P4-B3 scFv (scFv, part only; not given: Linker, domain order, tag, V domains shown, not shown: another chain or arm of the molecule; small tags and cut ends)
VH: B1 VH
VL: B1 VL
Turning to B2, in assay [3], the Kd was 0.94 nM, the koff is 6.45e-05 s⁻¹ and the kon came out at 68500 M⁻¹ s⁻¹.
